Experiment [1] concerns the target T1, recombinant Plasmodium falciparum circumsporozoite protein (rPfCSP) (Plasmodium falciparum 3D7, UniProt Q7K740).
T1 construct: full-length circumsporozoite (CS) protein of 3D7, a clone of the NF54 strain of P. falciparum; also called CS protein
The experiment in a line: BLI; Octet RED384; rPfCSP on the sensor, purified IgG at 2, 1, 0.5, 0.25, 0.125 ug/mL; 1:1 model; apparent affinity. To be noted: both partners purified. (In general: In BLI a coated tip is dipped into the sample, and binding shifts an interference pattern.)

The target of experiment [2] is T1, recombinant Plasmodium falciparum …. Nature of the experiment: BLI; Octet RED384; rPfCSP on the sensor, mouse serum 8 weeks after AAV administration with the mAb at 2, 1, 0.5, 0.25, 0.125 ug/mL; 1:1 model; apparent affinity. To be noted: one partner purified.

T1 sequence (Q7K740 19-374): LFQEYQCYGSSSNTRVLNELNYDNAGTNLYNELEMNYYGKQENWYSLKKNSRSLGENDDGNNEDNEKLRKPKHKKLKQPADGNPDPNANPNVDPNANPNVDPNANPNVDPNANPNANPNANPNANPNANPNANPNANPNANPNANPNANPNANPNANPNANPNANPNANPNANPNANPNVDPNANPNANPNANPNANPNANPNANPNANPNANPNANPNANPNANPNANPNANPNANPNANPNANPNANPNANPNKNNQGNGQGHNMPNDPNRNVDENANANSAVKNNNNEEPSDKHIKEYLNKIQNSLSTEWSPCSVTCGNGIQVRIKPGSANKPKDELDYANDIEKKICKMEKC

B1: CIS43 human monoclonal antibody (antibody, V domains shown)
VH: QVQLVQSGAEVKKPGASVKVSCKASGYTFTSYAIHWVRQAPGQRLEWMGWIKAGNGNTRYSQKFQDRVTITRDTSTTTAYMELSSLRSEDTAVYYCALLTVLTPDDAFDIWGQGTMVTVSS
VL: not shown
notes: the secreted chain begins at QVQLVQ; light chain of CIS43; IgG1 by the printed constant region; also called rCIS43; CIS43 IgG; source: Expi293 (GenScript) or CHO cells, purified (protein-A column; Superdex200 before BLI)
For the molecule B1, in experiment [1], the Kd stood at 5 nM.

B2: CIS43 expressed in vivo from an AAV vector (CIS43-AAV), in mouse serum (antibody, V domains shown)
VH: B1 VH
VL: not shown
notes: synthesised and cloned into the VIP vector; human IgG1 heavy chain constant region of the VIP expression vector; light chain variable region of CIS43, as in the light chain of Dm1; human kappa light chain constant region of the VIP expression vector; Heavy and light chain are made from one transcript, separated by an F2A self-processing peptide; also called AAV-expressed CIS43; source: expressed …
On to B2, for which the Kd in experiment [2] came to 2.3 nM.

The values above are taken from publication PMC7934869 (JCI Insight, 2021).
